Measurements as given in PMC7117543 (Biochemical and Biophysical Research Communications, 2008).

Molecular target: T1, staphylococcal enterotoxin B (SEB) (Staphylococcus aureus, UniProt P01552 28-266)
T1 sequence: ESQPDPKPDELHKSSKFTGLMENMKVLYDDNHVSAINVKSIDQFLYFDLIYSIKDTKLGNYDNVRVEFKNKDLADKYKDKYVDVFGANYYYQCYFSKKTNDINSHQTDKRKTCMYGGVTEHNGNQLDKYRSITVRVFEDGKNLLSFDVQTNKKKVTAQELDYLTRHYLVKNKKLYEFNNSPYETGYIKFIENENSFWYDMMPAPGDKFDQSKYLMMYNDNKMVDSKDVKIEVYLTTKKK
Assay: SPR

B1: phage clone 9 (M13 phage displaying QHPQINQTLYRM) (peptide)
peptide: QHPQINQTLYRM
  binding result: binds
